According to US20180094055A1 (Amgen, published 2018):

Legend:
[1] = biological target: T1, human PAC1 (form used for the Kd determination not stated) (human, UniProt P41586 21-468, limits assumed); assay: method not described (Table 8, 'Kd (nM)')
T1 construct: also called hPAC1
T1 sequence (looked up): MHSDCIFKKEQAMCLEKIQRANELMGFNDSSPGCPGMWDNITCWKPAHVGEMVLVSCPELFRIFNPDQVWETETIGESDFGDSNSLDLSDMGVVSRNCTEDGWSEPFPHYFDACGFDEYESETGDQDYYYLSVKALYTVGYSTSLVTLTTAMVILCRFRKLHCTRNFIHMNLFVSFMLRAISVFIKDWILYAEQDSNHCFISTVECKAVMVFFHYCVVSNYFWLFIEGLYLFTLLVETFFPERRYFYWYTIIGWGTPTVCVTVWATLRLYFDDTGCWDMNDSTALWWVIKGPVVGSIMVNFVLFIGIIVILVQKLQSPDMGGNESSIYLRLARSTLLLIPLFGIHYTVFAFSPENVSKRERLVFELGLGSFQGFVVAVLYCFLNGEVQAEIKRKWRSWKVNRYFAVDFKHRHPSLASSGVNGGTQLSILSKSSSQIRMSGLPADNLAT

[2] = biological target: T2, human pituitary adenylate cyclase-activating polypeptide type I receptor, endogenously expressed on SH-SY-5Y … (human, UniProt P41586 21-468); assay: cell-based or functional assay
T2 sequence (looked up): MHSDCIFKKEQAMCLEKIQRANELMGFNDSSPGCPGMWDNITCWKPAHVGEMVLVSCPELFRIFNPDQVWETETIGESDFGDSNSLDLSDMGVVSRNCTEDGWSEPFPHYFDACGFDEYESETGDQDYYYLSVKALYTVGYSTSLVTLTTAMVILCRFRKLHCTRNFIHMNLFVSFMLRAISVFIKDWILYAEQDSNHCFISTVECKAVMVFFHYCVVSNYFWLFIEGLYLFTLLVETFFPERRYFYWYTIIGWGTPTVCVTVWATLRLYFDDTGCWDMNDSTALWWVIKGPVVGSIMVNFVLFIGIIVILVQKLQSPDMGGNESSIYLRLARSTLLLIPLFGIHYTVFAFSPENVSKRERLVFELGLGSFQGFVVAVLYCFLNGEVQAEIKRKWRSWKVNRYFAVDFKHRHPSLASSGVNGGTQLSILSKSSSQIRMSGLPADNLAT

| Binder | Kd [1] [nM] | Antagonist IC50 (nM), PAC1 mediated cAMP assay (LANCE), PACAP-38 1 nM stimulation [2] [nM] |
| --- | --- | --- |
| Anti-hPAC1 antibody L (antibody, human IgG2, kappa, V domains shown, also called Ab ID L) VH: QVQLVESGGGVVQPGRSLRLSCAASGFTFSRYAMHWVRQASGKGLEWVAVISYDGSNKYYADSVKGRFTISRDNSKNTLYLLMSSLRAEDTAVFYCARGYDILTGYPDYWGQGTLVTVSS VL: DIQLTQSPSFLSASVGDRVTITCRASQSIGRSLHWYQQKPGKAPKLLFKYASQSLSGVPSRFSGSGSGTEFTLTISSLQPEDFATYYCHQSSRLPFTFGPGTKVDIKR | 0.024 | 4 |
| Anti-hPAC1 antibody W (antibody, human IgG2, kappa, V domains shown, also called Ab ID W) VH: QVQLQESGPGLVKPSQTLSLTCTVSGGSISSGGYYWSWIRQHPGKGLEWIGYIYYSGNTYYNPSLKSRVTISGDTSKNQFSLKLRSVTAADTAVYYCTRGGAARGMDVWGQGTTVTVSS VL: not shown | 0.189 | 28 |
